Changes are numbered by the printed parent chain.
B1: NP3-B4 (antibody, V domains shown)
VH: EVQLVESGGGLVQPGGSVKLSCLASGFTFSDYYMSWVRQSPEKGLEWVAEIRLESDNYATHYAESVKGKFTISRDDSKSRLYLKMNSLRGEDTGIYYCAFDVYYGGAMDYWGQGTTVTVSS
VL: DIQMTQSPSIMSASPGEKVTMTCSASSSVSYMHWYQQKSSTSPKLWIYDTSELASGVPGRFSGSRSGNSYSLTISSMEAEDVATYYCFQGSGYPLTFGGGTKLELK
B2: NP3-F7 (antibody, V domains shown)
VH: EVQLQQSGAELVRPGSSVKISCKASGYAFSSYWMNWVKQRPGQGLEWIGQIYPGNGDTYYNGKFMGKATLTADKFSSTAYMQLSGLTSEDSAVYFCARRPLFYAMDYWGQGTSVTVSS
VL: DIVLTQSPGSLAVSLGQRATISCKASQSVDYDGDSYMNWYQQKPGQPPKLLIYAASNLESGIPVRFSGSGSGTDFTLNIHPVEEEDAATYYCQQSNEDPWTFGGGTKLELK
B3: NP3-G12 (antibody, V domains shown)
VH: EAQLQQSGAEPMKPGASVKISCKTTGYTFTSDWIEWVQQRPGHGLEWIGEILPGSGNTNYNENFKGKATLTADTSSNTAYMHLSSLTSEDSAVYYCARRLFLRRYFDVWGAGTTVTVSS
VL: B2 VL with L4M, G9A, V64A, S67G, S69G, W100F
B4: NP3-G9 (antibody, V domains shown)
VH: B2 VH with S31N, K38R, G56D, M65K, A68V, F75S, S77T, M81I, S84I, G85S
VL: B2 VL with V3Q, L4M, G9S, T20S, D34E, L50V, V64A, S71A, N78S, N96Y
B5: NP3-E4 (antibody, V domains shown)
VH: EVQLVESGPGLVAPSQSLSITCTVSGFSLTSYGVSWVRQPPGKGLEWLGVIWGDGSTNYHSALISRLSINKDNSKSQVFLRLNSLQTDDTATYYCAKEDDGYLFYFDYWGQGTTLTVSS
VL: DIKMTQSPSSLSASLGDRVTISCSASQDISDYLNWYQQKPDGTVKLLIYYTSSLHSGVPSRFSGSGSGTDYSLTISNLEPEDIATYYCQQYSKLPYTFGGGTKLEIK
B6: NP3-B2 (antibody, V domains shown)
VH: QIQLVQSGGGLVKPGGSLKLSCAASGFTFSDYYMSWVRQTPEKRLEWVATISDGGSYTYYPDSVKGRFTISRDNAKNNLYLHMSSLKSEDTAMYYCARGSTYGNPLDYWGQGTTLTVSS
VL: DIQMTQTTSSLSASLGDRVTINCSASQGISNYLNWYQQKPDGTVKLLIYFTSSLHSGFPSRFSGSGSGTDFSLTISNLEPEDIATYYCQQYSKLPFTFGSGTKLEIK
B7: NP3-F10 (antibody, V domains shown)
VH: EVQLQQSGAELVEPGAPVKLSCKAFGYTFTSYWMNWVKQRPGRGLEWIGRIDPSDSETHYNQNFKDKAALTVDRSSSTAYIHLSSLTSEDSAVYYCAREVTTATKGVFSWLAYWGQGTLVTVSA
VL: B5 VL with K3Q, S7T, P8T, V44I, V58A, Y96W, I106L
B8: NP3-E5 (antibody, V domains shown)
VH: B6 VH with Q1E, I2V, Q6E, S56N, H82Q, Y108H
VL: B6 VL with F50Y, S53I, F58V, F71Y
B9: NP3-G6 (antibody, V domains shown)
VH: B6 VH with Q1E, I2V, Q6E, T114S, L115V
VL: B6 VL with T7S, T8P, S9A
B10: NP3-G5 (antibody, V domains shown)
VH: EVQLVESGPELKKPGEPVRISCKASGYTFTDYGMNWVKQAPGKGLKWMGWINTYTGEPTYADDFKGRFAFSLETSASTAFLQITNLKNEDTATYFCARAPLLRSYFDYWGQGTSVTVSS
VL: DIVMTQSHKFMSTSVGDRISITCKASQDVSTAVVWYQQKPGQSLKLLIYSASYRYTGVPDRFTGSGSGTDFTFTISSVQAEDLAIYYCQQYYSTPFTFGSGTKLEIK
B11: NP3-B1 (antibody, V domains shown)
VH: QVQLQQSGPELVKPGTSVTVYCKASGYTFTTYNIYWVKQSHGKSLEWIGYIDPYNGGTSYNQKFKGKATLTVDKSSSAAYMHLNSLTSEDSAVYYCALPWDYWGQGTTVTVSS
VL: not shown
B12: NP3-D1 (antibody, V domains shown)
VH: B11 VH with Q1D, Q6E, V12A, T16A, T19K, Y21S, T31S, A78T, T108S
VL: not shown
B13: NP3-E2 (antibody, V domains shown)
VH: EVQLQQSGPEVVRPGVSVKISCKGSGYTFTDYALHWVKQSHTKSLEWIGVISTYSGTTNYNQNFKGKATMAVDKSSSTAYMELARLTSEDSAIYYCASGGNYGLDYWGQGTSVTVSS
VL: DIVMTQSHKFMSTSVGDRVSITCKANQDVGSAVAWYQEKPGQSPKLLIYWTSTRHTGVPDRFTGNGSGTDFTLTISNVQSEDLVDYFCQQYSRYPLTFGSGTKLELK
B14: NP3-H12 (antibody, V domains shown)
VH: QIQLVQSGPELKKPGETVKISCKASGYMFTNYGMNWVKQAPGKGLKWMGWINTYTGEPTYADDFKGRFAFSLDISGSTAYLQINNLKNEDMATYFCARTREIWGNVDFPYWGQGTLVTVSA
VL: DILMTQAAPSLSVSVGETVTITCRASENIYSDLAWYQHKEGKSPQLLVYAATDLADGVPSRFSGSGSGTQYSLKINSLQSEDFGNYYCQHFWGTPWTFGGGTKLEIK
B15: NP3-D5 (antibody, V domains shown)
VH: DVQLQESGPELVRPGVSVKISCKGSGYTFTDYVMHWVKQSHAKSLEWIGVISTYSGNTNYNQKFKGKATMTVDKFSNTAYMELARLTSEDSAIYYCTRGTGDFDYWGQGTTLTVSS
VL: DIVMTQSHKFMSTSVGDRVSITCKASQDVGTAVAWYQQKPGQSPKLLIYWASTRHTGVPDRFTGSGSGTDFTLTISNVQSEDLADYFCHQYSSYPYTFGGGTKLEIK
B16: NP3-E11 (antibody, V domains shown)
VH: B15 VH with D1E, E6Q, F75S, A79V
VL: B15 VL with T31S, A51T, R61H, S76N
B17: NP3-A11 (antibody, V domains shown)
VH: EVQLQESGPELKKPGETVKISCKVSGYTFTNYGMNWVKQAPGKGLKWMGWINTYTGEPKYGDDFKGRFALSLETSAGTAYLRINNLKNEDTATYFCARSHGNYENHFDYWGQGTTLTVSS
VL: DIQMTQSPSSLSVSVGETVTITCRASENIYSSLAWYQQKQGKSPQLLVYTATDLADGVPSRFSGSGSGSQYSLRINSLQSEDFGSYYCQHFWGFPWTFGGGTKLEIK
B18: NP3-H9 (antibody, V domains shown)
VH: QIQLVQSGPELKKPGETVKISCKASGYTFTDYPIHWVKQAPGKGLKWMGWINAETGEPTYADDFKGRFVVSLETSASTAYLQINNLKNEDTATFFCARHYRYDEAWFVYWGQGTLVTVSA
VL: B17 VL with I2V, M4I, S32N, T50A, S69T, Q70H, R74K, Y86F, F94T
B19: NP3-C5 (antibody, V domains shown)
VH: QIQLVQSGPELKTPGETVKISCKASGYTFTNCGMHWVKQAPGKGLKWMGWINTYTGEPIYADDFKRRFAFSLETSASTAYLQINNLNNEDTASYFCARRDDVYYVAGFDYWGQGTTVTVFS
VL: B17 VL with S9A, S32N, T50G, S69T, R74K, F94T, I106L
B20: NP3-F4 (antibody, V domains shown)
VH: EVQLVESGPELKKPGETVKIPCKTSGYTFTNYGMNWVKQAPGKGLKWMGWINTNTGEPTYAEDFKGRFAFSLETSASTAYLQISNLKNEDTATFFCARGSIYDGYYEGLYYWGQGTTLTVSS
VL: B17 VL with Q3K, S32N, Y49S, T50A, D53N, G57N, S69T, R74K, W96R
B21: NP3-B9 (antibody, V domains shown)
VH: EVQLQQSGPELKKPGETVKISCKTSGYTFTNCGMHWVKQAPGKGLKWMGWINTYTGEPTYADDFKGRFAFSLETSVNTAYLQINNLKSEDTASYFCARRDDVYYVAGFDYWGQGTTLTVSS
VL: B17 VL with S9A, S32N, Y49N, T50G, S69T, R74K, H90L, F94T
B22: NP3-E3 (antibody, V domains shown)
VH: QIQLVQSGPDLKKPGETVKISCKASGYTFTDYSMHWVKQVPGKGLKWMGWINTETDKPTYADDFKGRFAFSLETSASTAYSQINNLKNEDTATYFCARHYKYDEAWSPYWGQGTLVTVSA
VL: B14 VL with L3V, M4L, A7S, A8P, P9A, D32N, H38Q, E40Q, K42Q

These binders were tested against T1, SARS-CoV-2 N protein RNA-binding domain (SARS-CoV-2, UniProt P0DTC9 44-180) (assay: Octet, KD (nM) heat map).
B1: no binding.
B2: no binding.
B3: no binding.
B4: no binding.

What follows are binders tested against T2, SARS-CoV-2 N protein oligomerization domain (SARS-CoV-2, UniProt P0DTC9 247-364) (assay: Octet, KD (nM) heat map).
T2 construct: also called N olig. domain; OD
B5: no binding.
B6: no binding.
B7: no binding.
B8: no binding.
B9: no binding.
B10: no binding.
B11: no binding.
B12: no binding.
B13: no binding.
B14: no binding.
B15: no binding.
B16: no binding.
B17: no binding.
B18: no binding.
B19: no binding.
B20: no binding.
B21: no binding.
B22: no binding.

What follows are binders tested against T1, SARS-CoV-2 N protein RNA-binding domain (assay: Octet (BLI) kinetics).
B5 showed a Kd of 3.46 nM.
B6 showed a Kd of 0.9 nM.
For B7, the Kd was 5.6 nM.
B8 gave a Kd of 1.38 nM.
B9 showed a Kd of 0.88 nM.
With B12 the Kd was 0.0015 nM.
Work on B14 yielded a Kd of 1.89 nM.
Work on B16 yielded a Kd of 0.57 nM.
B17 showed a Kd of 1.01 nM.
B18 gave a Kd of 3.16 nM.
In the case of B19, the Kd is reported as 0.62 nM.
Work on B20 yielded a Kd of 5.57 nM.
B21 gave a Kd of 0.47 nM.
With B22 the Kd was 1.36 nM.

Each binder was assayed against T3, SARS-CoV-2 N protein, full-length (SARS-CoV-2, UniProt P0DTC9 1-419) (assay: Octet (BLI) kinetics).
T3 construct: mature; also called SARS-CoV-2 nucleoprotein
B5 gave a Kd of 0.71 nM.
B6 gave a Kd of 1.51 nM.
In the case of B7, the Kd is reported as 2.53 nM.
Binder B8 has a Kd of 0.8 nM.
B9 was tested, and the Kd was 0.43 nM.
In the case of B11, the Kd is reported as 2.01 nM.
B12 gave a Kd of 5.63 nM.
With B13 the Kd was 0.57 nM.
B14 showed a Kd of 0.72 nM.
B16 gave a Kd of 1.23 nM.
B17 gave a Kd of 0.71 nM.
B18 showed a Kd of 5.2 nM.
B19 gave a Kd of 0.73 nM.
B20 was tested, and the Kd was 2.84 nM.
B21 gave a Kd of 0.38 nM.

From patent publication US20250320278A1 (LA JOLLA INSTITUTE FOR IMMUNOLOGY, published 2025)
